Data: PMC12137620, “Targeting the MDK/c‐Myc complex to overcome temozolomide resistance in glioma” (Clinical and Translational Medicine, 2025)

What was measured:
[1] = target: T1, His-tagged c-Myc (human, UniProt P01106 1-454, labelled with the NT-647-NHS dye); experiment: MST; Monolith NT.115; NT-647-NHS-labelled c-Myc held constant (416 nM stock mixed 1:1), MDK in 16 serial dilutions; PBSP (1x PBS + 0.1% Pluronic F-127); standard treated capillaries; conditions: both partners purified
T1 construct: c-Myc; plasmid constructed by Tsingke Biotechnology Co., Ltd. (Beijing); also called recombinant c-Myc protein; source: bacterial BL21 cells, purified (Ni-NTA agarose)

[2] = target: T1, His-tagged c-Myc; experiment: MST; as the MST of MDK and c-Myc, after the addition of 1 µM ACT001; conditions: both partners purified

T1 sequence (P01106 whole entry): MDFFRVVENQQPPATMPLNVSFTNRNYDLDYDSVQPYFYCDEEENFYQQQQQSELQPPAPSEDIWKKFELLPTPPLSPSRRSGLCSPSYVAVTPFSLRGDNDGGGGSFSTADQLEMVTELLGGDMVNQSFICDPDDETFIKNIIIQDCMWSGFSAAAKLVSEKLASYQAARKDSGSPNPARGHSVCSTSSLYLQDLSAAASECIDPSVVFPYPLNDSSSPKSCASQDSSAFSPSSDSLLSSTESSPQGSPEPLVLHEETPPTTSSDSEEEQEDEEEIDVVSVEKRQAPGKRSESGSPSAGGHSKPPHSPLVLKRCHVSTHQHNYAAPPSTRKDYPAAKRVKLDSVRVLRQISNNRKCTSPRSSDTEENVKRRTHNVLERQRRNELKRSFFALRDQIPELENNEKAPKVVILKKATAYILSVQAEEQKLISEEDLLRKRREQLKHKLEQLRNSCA

B1: Recombinant human MDK protein (natural protein, UniProt P21741 21-143, looked up)
chain: VAKKKDKVKKGGPGSECAEWAWGPCTPSSKDCGVGFREGTCGAQTQRIRCRVPCNWKKEFGADCKYKFENWGACDGGTGTKVRQGTLKKARYNAQCQETIRVTKPCTPKTKAKAKAKKGKGKD
notes: recombinant human midkine, bought; also called midkine; source: bought: Zeye Biotechnology Corporation (ZY631H02P, Shanghai)
Kd [1]: 18.8 nM | Kd [2]: 1540 nM
